Test results reported in PMC7387793, “Structural Basis and Evolution of Glycan Receptor Specificities within the Polyomavirus Family” (mBio, 2020).

Assays:
[1] = target: Goose hemorrhagic polyomavirus (GhPyV) major capsid protein VP1, amino acids 21 to 286 (goose hemorrhagic polyomavirus (GhPyV)); assay: crystal structure; X-ray structures of truncated, assembly-incompetent VP1 pentamers, native and soaked with sialylated glycans; solved by molecular replacement with 5-fold NCS restraints
GhPyV VP1 = target: T1, GhPyV VP1 (Goose hemorrhagic polyomavirus, UniProt A0A860PKB9); assay: X-ray crystal structure (soak); assay type: binding; conditions: crystal soaked with 20 mM 2-O-Me-Neu5Ac, 17 h, MES/imidazole pH 6.5, 1.95 Å; BC2 loop site
T1 construct: truncated VP1, residues 21-286, E. coli BL21(DE3), His tag cut by thrombin (GSHM left), pentamer; site includes counterclockwise monomer

[2] = target: Chimpanzee polyomavirus (ChPyV) major capsid protein VP1, N- and C-terminally truncated, C154S (chimpanzee polyomavirus (ChPyV)); assay: crystal structure; X-ray structures of truncated, assembly-incompetent VP1 pentamers, native and soaked with sialylated glycans; solved by molecular replacement with 5-fold NCS restraints
[3] = target: Sheep polyomavirus (ShPyV) major capsid protein VP1, amino acids 20 to 285, C95S (sheep polyomavirus (ShPyV)); assay: as above
[4] = target: Human polyomavirus 12 (HPyV12) major capsid protein VP1, amino acids 27 to 299 (human polyomavirus 12 (HPyV12)); assay: as above
[5] = target: New Jersey polyomavirus (NJPyV) major capsid protein VP1, amino acids 36 to 323 (New Jersey polyomavirus-2013 (NJPyV)); assay: as above
[6] = target: Finch polyomavirus (FiPyV) major capsid protein VP1, amino acids 22 to 291, C78S C92S (finch polyomavirus (FiPyV)); assay: as above

Goose hemorrhagic polyomavirus (GhPyV) major capsid protein VP1, amino acids 21 to 286 (domain or fragment)
stoichiometry N [1]: 5

CO[C@]1(C(=O)O)C[C@H](O)[C@@H](NC(C)=O)[C@H]([C@H](O)[C@H](O)CO)O1 [2-O-Me-Neu5Ac]
X-ray crystal structure (soak) (GhPyV VP1): GhPyV VP1 with 2-O-Me-Neu5Ac

Chimpanzee polyomavirus (ChPyV) major capsid protein VP1, N- and C-terminally truncated, C154S (domain or fragment)
stoichiometry N [2]: 5

Sheep polyomavirus (ShPyV) major capsid protein VP1, amino acids 20 to 285, C95S (domain or fragment)
stoichiometry N [3]: 5

Human polyomavirus 12 (HPyV12) major capsid protein VP1, amino acids 27 to 299 (domain or fragment)
stoichiometry N [4]: 5

New Jersey polyomavirus (NJPyV) major capsid protein VP1, amino acids 36 to 323 (domain or fragment)
stoichiometry N [5]: 5

Finch polyomavirus (FiPyV) major capsid protein VP1, amino acids 22 to 291, C78S C92S (domain or fragment)
stoichiometry N [6]: 5
